Test results reported in patent publication CN101218351A (UNIV DUKE, dated 2008).

Biological target: T1, human CD19 (human, UniProt P15391 20-556)
T1 construct: whole, on cells; also called hCD19
T1 sequence (looked up): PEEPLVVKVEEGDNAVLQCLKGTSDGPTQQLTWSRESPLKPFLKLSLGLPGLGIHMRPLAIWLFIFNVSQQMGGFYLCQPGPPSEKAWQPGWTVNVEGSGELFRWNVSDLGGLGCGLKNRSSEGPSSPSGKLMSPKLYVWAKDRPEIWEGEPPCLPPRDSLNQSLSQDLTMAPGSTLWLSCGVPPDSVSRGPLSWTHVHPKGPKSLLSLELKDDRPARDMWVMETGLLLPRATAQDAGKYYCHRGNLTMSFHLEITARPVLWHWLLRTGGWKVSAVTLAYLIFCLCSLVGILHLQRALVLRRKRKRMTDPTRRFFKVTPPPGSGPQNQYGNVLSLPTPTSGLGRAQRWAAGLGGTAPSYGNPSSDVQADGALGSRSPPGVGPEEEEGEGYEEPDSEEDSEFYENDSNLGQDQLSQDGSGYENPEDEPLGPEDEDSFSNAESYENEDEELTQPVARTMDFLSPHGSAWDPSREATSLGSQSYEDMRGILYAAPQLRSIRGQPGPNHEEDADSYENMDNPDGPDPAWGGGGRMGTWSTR
Assay: flow cytometry on hCD19 cDNA-transfected 300.19 cells, antibody at 5 ug/mL, anti-mouse Ig PE secondary

B1: FMC63 anti-CD19 antibody (antibody, IgG2a, V domains shown)
VH: EVKLQESGPGLVAPSQSLSVTCTVSGVSLPDYGVSWIRQPPRKGLEWLGVIWGSEDTTYYNSALKSRLTIIKDNSKSQVFLKMNSLQTDDTAIYYCAKHYYYGGSYAMDYWGQGTSVTVSS
VL: DIQMTQTTSSLSASLGDRVTISCRASQDISKYLNWYQQKPDGTVKLLIYHTSRLHSGVPSRFSGSGSGTDYSLTISNLEQEDIATYFCQQGNTLPYTFGGGTKLEIT
notes: Mouse monoclonal IgG2a, bought from Chemicon International
binding result: binds
